Assay results as given in article PMC3795039.

Legend:
GST-NUP153C (human) = GST-NUP153C (human) (UniProt P49790); test: pull-down; 0.47 µM GST-NUP153C pre-bound to glutathione-sepharose beads, 0.8 µM his-tagged IN, PD buffer (150 mM NaCl, 25 mM Tris-HCl pH 7.4, 5 mM MgCl2, 5 mM DTT, 0.1% NP-40), BSA 5 µg, 2 h 4°C; Coomassie and anti-his blot
[1] = molecular target: HIV-1 CA-NC fusion protein assembled into tube-like complexes (HIV-1); test: co-sedimentation; purified tag-free NUP153C or GST incubated with assembled HIV-1 CA-NC complexes, pelleted through a sucrose cushion; Coomassie stain
[2] = molecular target: HIV-1 CA-NC fusion protein assembled into tube-like complexes (HIV-1); test: co-sedimentation; competition: 4 µM purified WT or mutant NUP153C added to 0.8 µM assembled CA-NC and CPSF6-HA 293T extract; read-out is CPSF6 in the pellet
[3] = molecular target: full length his-tagged wild-type HIV-1 CA (HIV-1 (NL4-3)); test: pull-down; Ni-NTA beads, 20 µM his-tagged CA or CAN, 0.5 µM purified NUP153C, 25 mM Tris-HCl pH 8.0, 150 mM NaCl, 0.1% NP-40, 1 h room temperature; Coomassie or SYPRO Ruby stain
[4] = molecular target: his-tagged HIV-1 CAN Q63A/Q67A (HIV-1 (NL4-3)); test: as above
[5] = molecular target: T1, his-tagged HIV-1 CA N-terminal domain (CAN) (HIV-1 (NL4-3)), P12493; test: as above; conditions: remark: other sources report otherwise
[6] = molecular target: T1, his-tagged HIV-1 CA N-terminal domain …; test: pull-down; saturation curves: 3 µl Ni-NTA beads, 0.5 µM purified WT or mutant NUP153C, HIV-1 CAN from 2 µM to 200 µM in half-log steps, 150 mM NaCl, 25 mM Tris-HCl pH 8.0, 0.1% NP-40; percent bound by SYPRO Ruby; one-site saturation fit, Kd at half-maximal binding; conditions: remark: other sources report otherwise

his-tagged FIV integrase (IN) (enzyme)
percent of input pulled down (GST-NUP153C (human)): 5.55%

his-tagged HIV-1 integrase (IN) (enzyme)
percent of input pulled down (GST-NUP153C (human)): 0.85%

recombinant tag-free NUP153C (residues 896–1475) (from UniProt P49790-1 896-1475) (domain or fragment)
percent of input recovered in the pellet [1]: 40%
fold decrease of CPSF6 binding to CA-NC with 4 µM NUP153C [2]: 7 fold
percent of input pulled down [3]: 30%
fold decrease of binding against WT CAN [4]: 1.3 fold

B1: recombinant tag-free NUP153C (residues 896–1475), P49790-1 896-1475 (domain or fragment)
chain: NSAASSSFKFGVSSSSSGPSQTLTSTGNFKFGDQGGFKIGVSSDSGSINPMSEGFKFSKPIGDFKFGVSSESKPEEVKKDSKNDNFKFGLSSGLSNPVSLTPFQFGVSNLGQEEKKEELPKSSSAGFSFGTGVINSTPAPANTIVTSENKSSFNLGTIETKSASVAPFTCKTSEAKKEEMPATKGGFSFGNVEPASLPSASVFVLGRTEEKQQEPVTSTSLVFGKKADNEEPKCQPVFSFGNSEQTKDENSSKSTFSFSMTKPSEKESEQPAKATFAFGAQTSTTADQGAAKPVFSFLNNSSSSSSTPATSAGGGIFGSSTSSSNPPVATFVFGQSSNPVSSSAFGNTAESSTSQSLLFSQDSKLATTSSTGTAVTPFVFGPGASSNNTTTSGFGFGATTTSSSAGSSFVFGTGPSAPSASPAFGANQTPTFGQSQGASQPNPPGFGSISSSTALFPTGSQPAPPTFGTVSSSSQPPVFGQQPSQSAFGSGTTPNSSSAFQFGSSTTNFNFTNNSPSGVFTFGANSSTPAASAQPSGSGGFPFNQSPAAFTVGSNGKNVFSSSGTSFSGRKIKTAVRRRK
percent of input pulled down [5]: 30%
Kd [6]: 28.3 µM
